Data: patent publication US20250215083A1 (JIANGSU HENGRUI PHARMACEUTICALS, published 2025)
Residue numbers refer to the chain shown, from its start.

B1: F11-7 (bispecific antibody)
heavy: not shown
light: DVVLTQSPLSLPVTLGQPASISCKSSQSLLHSNGKTYLNWLLQRPGQSPRRLIYLVSKLDSGVPDRFSGSGSGTDFTLKISRVEAEDVGVYYCAQGTHFPRTFGGGTKVEIKRTVAAPSVFIFPPSDEQLKSGTASVVCLLNNFYPREAKVQWKVDNALQSGNSQESVTEQDSKDSTYSLSSTLTLSKADYEKHKVYACEVTHQGLSSPVTKSFNRGEC
notes: formula 11
B2: F11-8 (bispecific antibody)
heavy: not shown
light: B1 light with N33S
notes: formula 11
B3: F11-9 (bispecific antibody)
heavy: not shown
light: B1 light with N33T
notes: formula 11
B4: F11-10 (bispecific antibody)
heavy: not shown
light: B1 light
notes: formula 11
B5: F11-11 (bispecific antibody)
heavy: not shown
light: B1 light with N33S
notes: formula 11
B6: F2-4 (bispecific antibody)
heavy 1: not shown
light 1: DVVMTQSPLSLPVTPGEPASISCRSSQSIVHSNRNTYLEWYLQKPGQSPKLLIYKVSNRFSGVPDRFFGSGSGTDFTLKINRVEAEDVGVYYCFQGSHVPFTFGGGTKVEIKRTVAAPSVFIFPPSDEQLKSGTASVVCLLNNFYPREAKVQWKVDNALQSGNSQESVTEQDSKDSTYSLSSTLTLSKADYEKHKVYACEVTHQGLSSPVTKSFNRGEC
heavy 2: not shown
light 2: not shown
notes: formula 2
B7: Chi-1 (antibody, human IgG1, kappa, L234A L235A, V domains shown)
VH: EVQLVESGGGLVKPGGSLKLSCAASGFTFSDYGMHWVRQAPEKGLEWVAFISSGSSTIYYADTVKGRFTISRDNAKNTLFLQMTSLRSEDTAIYYCTRLGPNWYFDVWGTGTTVTVSS
VL: DVVMTQTPLSLSVSLGDQASISCRSSQSLVHSNGNTYLYWYLQKPGQSPKLLIYKVSNRFSGVPDRFSGSGSGTDFTLKISRVEAEDLGVYFCSQSTHVPPLTFGAGTKLELKR
B8: Chi-24 (antibody, human IgG1, kappa, L234A L235A, V domains shown)
VH: QVQLQQSDAELVKPGGSVKISCKVSGYTFTDYPIHWMKQRPEQGLEWMGYVFPRDGSTKYNEKFRVKATWTADKSSSTVYMQLNSLTSDDSAVYFCSRELTAYWGQGTTLRVSS
VL: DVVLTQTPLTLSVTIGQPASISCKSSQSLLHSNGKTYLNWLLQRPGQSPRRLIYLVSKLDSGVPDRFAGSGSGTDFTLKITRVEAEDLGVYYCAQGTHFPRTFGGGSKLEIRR
B9: Chi-30 (antibody, human IgG1, kappa, L234A L235A, V domains shown)
VH: EVQLQQSGPELVKPGGSMKISCKASGYSFTGYTMNWVKQSHGKNPEWIGLINPYNGGTRNNQKFKDKATLTVDKSSSTAYMELLSLTSEDSAVYYCTRWGLRLAMDYWGQGTSVTVSS
VL: DIVMTQSQKFMSTSVGDRVSVTCKASQNVGSNVAWYQQKPGQSPKALIYSASYRYSGVPDRFTGSGSGTDFTLTISNVQSEDLAEYFCHQYNSYPPTFGAGTKLALKR
B10: Chi-45 (antibody, human IgG1, kappa, L234A L235A, V domains shown)
VH: EVKLVESGGGLVQPGDFLSLSCAASGFTFTDYYLSWVRQPPGKALEWLAFIRNRAKGYTTEYSASVKGRFTISRDNSQSILYLQMNVLRAEDSATYYCARMGGKGWHFDVWGTGTTVTVSS
VL: DVLMTQSPLSLPVSLGDQASISCRSSQSIVHSNGNTYLEWYLQKPGQSPKLLIYKVSNRFSGVPDRFFGSGSGTDFTLKINRVEAEDLGVYYCFQGSHVPFTFGGGTKLEIKR
B11: F11-17 (bispecific antibody)
heavy: not shown
light: DVVMTQTPLSLSVSLGDQASISCRSSQSLVHSNGNTYLYWYLQKPGQSPKLLIYKVSNRFSGVPDRFSGSGSGTDFTLKISRVEAEDLGVYFCSQSTHVPPLTFGAGTKLELKRTVAAPSVFIFPPSDEQLKSGTASVVCLLNNFYPREAKVQWKVDNALQSGNSQESVTEQDSKDSTYSLSSTLTLSKADYEKHKVYACEVTHQGLSSPVTKSFNRGEC
notes: formula 11 with Chi-1 variable regions
B12: JNJ-64407564 (bispecific antibody, human IgG4 S228P, kappa, lambda, F234A L235A)
heavy 1: not shown
light 1: DIQMTQSPSSLSASVGDRVTITCKASQNVATHVGWYQQKPGKAPKRLIYSASYRYSGVPSRFSGSGSGTEFTLTISNLQPEDFATYYCQQYNRYPYTFGQGTKLEIKRTVAAPSVFIFPPSDEQLKSGTASVVCLLNNFYPREAKVQWKVDNALQSGNSQESVTEQDSKDSTYSLSSTLTLSKADYEKHKVYACEVTHQGLSSPVTKSFNRGEC
heavy 2: EVQLVESGGGLVQPGGSLRLSCAASGFTFNTYAMNWVRQAPGKGLEWVARIRSKYNNYATYYAASVKGRFTISRDDSKNSLYLQMNSLKTEDTAVYYCARHGNFGNSYVSWFAYWGQGTLVTVSSASTKGPSVFPLAPCSRSTSESTAALGCLVKDYFPEPVTVSWNSGALTSGVHTFPAVLQSSGLYSLSSVVTVPSSSLGTKTYTCNVDHKPSNTKVDKRVESKYGPPCPPCPAPEAAGGPSVFLFPPKPKDTLMISRTPEVTCVVVDVSQEDPEVQFNWYVDGVEVHNAKTKPREEQFNSTYRVVSVLTVLHQDWLNGKEYKCKVSNKGLPSSIEKTISKAKGQPREPQVYTLPPSQEEMTKNQVSLTCLVKGFYPSDIAVEWESNGQPENNYKTTPPVLDSDGSFLLYSKLTVDKSRWQEGNVFSCSVMHEALHNHYTQKSLSLSLGK
light 2: QTVVTQEPSLTVSPGGTVTLTCRSSTGAVTTSNYANWVQQKPGQAPRGLIGGTNKRAPGTPARFSGSLLGGKAALTLSGVQPEDEAEYYCALWYSNLWVFGGGTKLTVLGQPKAAPSVTLFPPSSEELQANKATLVCLISDFYPGAVTVAWKADSSPVKAGVETTTPSKQSNNKYAASSYLSLTPEQWKSHRSYSCQVTHEGSTVEKTVAPTECS
notes: anti-GPRC5D arm and anti-CD3E arm; also called positive control molecule
B13: F11-19 (bispecific antibody)
heavy: not shown
light: DIVMTQSQKFMSTSVGDRVSVTCKASQNVGSNVAWYQQKPGQSPKALIYSASYRYSGVPDRFTGSGSGTDFTLTISNVQSEDLAEYFCHQYNSYPPTFGAGTKLALKRTVAAPSVFIFPPSDEQLKSGTASVVCLLNNFYPREAKVQWKVDNALQSGNSQESVTEQDSKDSTYSLSSTLTLSKADYEKHKVYACEVTHQGLSSPVTKSFNRGEC
notes: formula 11 with Chi-30 variable regions
B14: F4-1 (bispecific antibody)
heavy 1: not shown
light 1: not shown
heavy 2: EVQLVESGGGLVQPGGSLRLSCAASGFTFTDYYLSWVRQAPGKGLEWVAFIRNRAKGYTTEYSASVKGRFTISRDNAKNSLYLQMNSLRAEDTAVYYCARMGGKGWHFDVWGQGTTVTVSSASTKGPSVFPLAPSSKSTSGGTAALGCLVKDYFPEPVTVSWNSGALTSGVHTFPAVLQSSGLYSLSSVVTVPSSSLGTQTYICNVNHKPSNTKVDKKVEPKSCDKTHTCPPCPAPEAAGGPSVFLFPPKPKDTLMISRTPEVTCVVVDVSHEDPEVKFNWYVDGVEVHNAKTKPREEQYNSTYRVVSVLTVLHQDWLNGKEYKCKVSNKALPAPIEKTISKAKGQPREPQVCTLPPSRDELTKNQVSLSCAVKGFYPSDIAVEWESNGQPENNYKTTPPVLDSDGSFFLVSKLTVDKSRWQQGNVFSCSVMHEALHNHYTQKSLSLSPGK
light 2: B6 light 1
notes: formula 4
B15: F4-2 (bispecific antibody)
heavy 1: not shown
light 1: not shown
heavy 2: B14 heavy 2 with A77S
light 2: B6 light 1
notes: formula 4
B16: F4-3 (bispecific antibody)
heavy 1: not shown
light 1: not shown
heavy 2: B14 heavy 2 with K78Q
light 2: B6 light 1
notes: formula 4
B17: F4-9 (bispecific antibody)
heavy 1: not shown
light 1: not shown
heavy 2: EVKLVESGGGLVQPGDFLSLSCAASGFTFTDYYLSWVRQPPGKALEWLAFIRNRAKGYTTEYSASVKGRFTISRDNSQSILYLQMNVLRAEDSATYYCARMGGKGWHFDVWGTGTTVTVSSASTKGPSVFPLAPSSKSTSGGTAALGCLVKDYFPEPVTVSWNSGALTSGVHTFPAVLQSSGLYSLSSVVTVPSSSLGTQTYICNVNHKPSNTKVDKKVEPKSCDKTHTCPPCPAPEAAGGPSVFLFPPKPKDTLMISRTPEVTCVVVDVSHEDPEVKFNWYVDGVEVHNAKTKPREEQYNSTYRVVSVLTVLHQDWLNGKEYKCKVSNKALPAPIEKTISKAKGQPREPQVCTLPPSRDELTKNQVSLSCAVKGFYPSDIAVEWESNGQPENNYKTTPPVLDSDGSFFLVSKLTVDKSRWQQGNVFSCSVMHEALHNHYTQKSLSLSPGK
light 2: B6 light 1 with V3L, T14S, P15L, E17D, P18Q, R34G, V88L, V109L
notes: formula 4 with Chi-45 variable regions
B18: F11-18 (bispecific antibody)
heavy: not shown
light: B1 light with S7T, S10T, P12S, L15I, S68A, S81T, V88L, T107S, V109L, K112R
notes: formula 11 with Chi-24 variable regions

Each binder was assayed against T1, human GPRC5D (human, UniProt Q9NZD1 1-345) (assay: FACS, MM.1R cells).
T1 construct: whole, on cells; also called membrane surface GPRC5D
T1 sequence (Q9NZD1 whole entry): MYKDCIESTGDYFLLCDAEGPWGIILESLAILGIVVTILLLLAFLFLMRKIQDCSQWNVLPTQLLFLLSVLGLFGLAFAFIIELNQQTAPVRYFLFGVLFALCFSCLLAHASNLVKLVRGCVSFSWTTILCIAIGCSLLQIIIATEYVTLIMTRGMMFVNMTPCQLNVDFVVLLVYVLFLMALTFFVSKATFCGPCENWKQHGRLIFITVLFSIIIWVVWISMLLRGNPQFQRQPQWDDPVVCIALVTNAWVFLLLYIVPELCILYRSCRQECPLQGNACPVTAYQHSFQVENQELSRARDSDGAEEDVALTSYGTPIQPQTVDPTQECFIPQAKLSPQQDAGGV
Experimental: (§1) To test the capacity of the GPRC5D/CD3 bispecific antibodies of the present disclosure to bind to GPRC5D, a flow cytometry assay was used in this test example to measure the capacity of the GPRC5D/CD3 bispecific antibodies to bind to the human multiple myeloma cell line MM.1R (ATCC® CRL-2975), which expresses GPRC5D, and to a stably transfected cell strain CHOK1-cynoGPRC5D, which expresses cynomolgus monkey GPRC5D. The specific procedure was as follows: The cells described above were cultured in complete culture medium containing 10% FBS, incubated in a 37° C., 5% CO₂ incubator for 2 days, and added to a cell plate at 1×10⁵ cells/well. The plate was centrifuged at 300 g for 5 min and washed once with 1% BSA. The antibodies were serially diluted to 8 concentrations and added to the cell plate at 100 μL/well. The plate was incubated at 4° C. for 1 h and washed once with 1% BSA. […] The plate was washed three times with 1% BSA, PBS was added at 100 μL/well, and plate reading was performed.

In order of falling EC50:
1. B6  7.56 nM
2. B3  2.16 nM
3. B2  2 nM
4. B1  1.89 nM
5. B5  1.7 nM
6. B4  1.29 nM

What follows are binders tested against T2, cynomolgus monkey GPRC5D (cynomolgus monkey) (assay: FACS, CHOK1-cynoGPRC5D cells).
T2 construct: whole, on cells; also called CynoGPRC5D; cynoGPRC5D
Experimental: as §1

In order of rising EC50:
1. B12  0.06 nM
2. B11  0.35 nM
3. B7  1.2 nM
4. B9  1.57 nM
5. B10  1.91 nM
6. B13  2.71 nM
7. B14  3.28 nM
8. B15  3.45 nM
9. B16  3.83 nM
10. B8  3.96 nM
11. B17  4.01 nM

In order of falling Max:
1. B17  83700
2. B14  76600
3. B16  76100
4. B15  75200
5. B10  14600
6. B13  9790
7. B8  9630
8. B9  7940
9. B7  7880
10. B11  0.98
11. B12  0.26

Molecular target: T2, cynomolgus monkey GPRC5D
Experiment: FACS, CHOK1-cynoGPRC5D cells
Remark: another data set of the same source
Experimental: as §1

In order of falling EC50:
1. B6  3.95 nM
2. B5  1.01 nM
3. B1  0.76 nM
4. B4  0.4 nM
5. B2  0.36 nM
6. B3  0.17 nM

Molecular target: T1, human GPRC5D
Experiment: FACS, MM.1R cells
Remark: another data set of the same source
Experimental: as §1

In order of rising EC50:
1. B11  0.31 nM
2. B9  0.46 nM
3. B4  1.29 nM
4. B13  1.32 nM
5. B7  1.43 nM
6. B18  1.57 nM
7. B10  1.64 nM
8. B5  1.7 nM
9. B1  1.89 nM
10. B2  2 nM
11. B3  2.16 nM
12. B8  2.81 nM
13. B15  15.8 nM
14. B16  16.1 nM
15. B14  16.9 nM
16. B17  19.2 nM

In order of rising Max:
1. B11  1.82
2. B13  1140
3. B10  1250
4. B18  1300
5. B4  1470
6. B5  1560
7. B2  1910
8. B3  1950
9. B1  2020
10. B9  2100
11. B8  5000
12. B7  5210
13. B17  13200
14. B15  13700
15. B14  13800
16. B16  13800
